Results as given in paper doi:10.1101/2022.03.06.483192, “Structural maturation of SYCP1-mediated meiotic chromosome synapsis through conformational remodelling by molecular adapter SYCE3” (bioRxiv, 2022).
Substitutions are numbered along the chain they refer to. “And” between values parts separate entries of the source, which are not always exact repeats. Equal values may be shown once.

T1: SYCP1αN ΔNtip (UniProt Q15431 112-362)
T1 construct: SYCP1αN (101-362) with the αNtip (amino-acids 101-111) deleted; also called SYCP1 ΔNtip; source: E. coli BL21(DE3), co-expressed with SYCE3, complex purified
T1 sequence (looked up): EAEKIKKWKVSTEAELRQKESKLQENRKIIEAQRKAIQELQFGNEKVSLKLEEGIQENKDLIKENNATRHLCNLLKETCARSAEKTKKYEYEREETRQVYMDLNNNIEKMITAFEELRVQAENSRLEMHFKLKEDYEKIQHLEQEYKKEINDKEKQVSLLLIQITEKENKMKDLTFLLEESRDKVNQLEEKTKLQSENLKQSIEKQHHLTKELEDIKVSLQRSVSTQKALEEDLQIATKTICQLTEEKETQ

T2: SYCP1αN V105E L109E (UniProt Q15431 101-362, V105E | L109E)
T2 construct: SYCP1αN, amino-acids 101-362, with V105E L109E; source: E. coli BL21(DE3), complex with SYCE3
T2 sequence (looked up): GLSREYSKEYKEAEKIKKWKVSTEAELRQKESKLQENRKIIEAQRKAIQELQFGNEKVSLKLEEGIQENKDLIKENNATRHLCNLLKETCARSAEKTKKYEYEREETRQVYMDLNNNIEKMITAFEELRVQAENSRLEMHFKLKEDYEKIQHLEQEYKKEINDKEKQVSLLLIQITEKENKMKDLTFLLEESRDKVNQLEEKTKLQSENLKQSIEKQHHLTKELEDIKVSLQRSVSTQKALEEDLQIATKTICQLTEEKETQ

T3: SYCE2-TEX12core, labelled (UniProt Q6PIF2 57-165; Q9BXU0 49-123, labelled with the Monolith NT Protein Labelling Kit RED (which chain is not told) | labelled with the Monolith NT Protein Labelling Kit RED (which chain is not told))
T3 construct: SYCE2 structural core; TEX12 structural core; source: E. coli BL21(DE3), purified
T3 sequence (looked up) 1: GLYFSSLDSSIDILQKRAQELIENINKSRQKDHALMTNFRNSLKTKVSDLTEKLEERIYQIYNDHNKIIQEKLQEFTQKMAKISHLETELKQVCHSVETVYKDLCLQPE
T3 sequence (looked up) 2: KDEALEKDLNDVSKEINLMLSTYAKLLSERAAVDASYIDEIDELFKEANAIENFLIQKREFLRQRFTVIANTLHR

T4: MBP-SYCP1αNcore (UniProt Q15431 206-362)
T4 construct: SYCP1 tetrameric core (αNcore), amino-acids 206-362; also called MBP-SYCP1 (amino-acids 206-362); source: E. coli BL21(DE3), co-expressed with SYCE3 constructs; in lysate for the pull-down, co-purified (amylose, anion exchange, SEC); not shown: MBP, N-terminal, kept
T4 sequence (looked up): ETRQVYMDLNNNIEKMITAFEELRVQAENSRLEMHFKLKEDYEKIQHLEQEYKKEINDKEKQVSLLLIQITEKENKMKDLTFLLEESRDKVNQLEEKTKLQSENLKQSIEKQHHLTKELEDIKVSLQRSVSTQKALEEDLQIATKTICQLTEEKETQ

T5: MBP-SYCP1αN (UniProt Q15431 101-362)
T5 construct: SYCP1αN, amino-acids 101-362; source: E. coli BL21(DE3), co-expressed with His-SYCE3, complex purified
T5 sequence (looked up): T2 sequence (looked up) with E5V, E9L

B1: SYCP1αN (domain or fragment, UniProt Q15431 101-362, looked up)
chain: T2 sequence (looked up) with E5V, E9L
notes: SYCP1 α-helical N-terminal region (αN), amino-acids 101-362; also called SYCP1's full α-helical N-terminal region (amino-acids 101-362); source: E. coli BL21(DE3), purified; alone or co-expressed with SYCE3
B2: SYCE3 (natural protein, UniProt A1L190 1-88, looked up)
chain: MDDADPEERNYDNMLKMLSDLNKDLEKLLEEMEKISVQATWMAYDMVVMRTNPTLAESMRRLEDAFVNCKEEMEKNWQELLHETKQRL
notes: SYCE3, wild type; dimer alone by SEC-MALS; one chain in the 2:1 complex with SYCP1; also called SYCE3 wild-type; free SYCE3; source: alone or co-expressed with SYCP1 constructs; not shown: His, N-terminal, cleaved
B3: His-SYCE3 (natural protein, UniProt A1L190 1-88, looked up)
chain: B2 chain
notes: SYCE3, wild type; SYCE3 1-88 (human) was cloned for the two-hybrid; also called SYCE3 wild-type (WT); source: E. coli BL21(DE3), co-expressed with MBP fusions; in lysate for pull-downs, co-purified (amylose, anion exchange, SEC); not shown: His, N-terminal, kept
B4: SYCE3 12-88 (domain or fragment, UniProt A1L190 12-88, looked up)
chain: DNMLKMLSDLNKDLEKLLEEMEKISVQATWMAYDMVVMRTNPTLAESMRRLEDAFVNCKEEMEKNWQELLHETKQRL
notes: SYCE3 residues 12-88; source: E. coli BL21(DE3), co-expressed with SYCP1αNcore, complex purified
B5: SYCP1αNcore (domain or fragment, UniProt Q15431 206-362, looked up)
chain: T4 sequence (looked up)
notes: SYCP1 tetrameric core (αNcore), amino-acids 206-362; tetramer alone by SEC-MALS; two chains in the 2:1 complex with SYCE3; also called SYCP1 tetrameric core; SYCP1αNT; source: E. coli BL21(DE3), purified (amylose, TEV cleavage, anion exchange, SEC); alone or co-expressed with SYCE3; not shown: MBP, N-terminal, cleaved
B6: SYCP1 αCore-ΔNtip (domain or fragment, UniProt Q15431 112-783, looked up)
chain: EAEKIKKWKVSTEAELRQKESKLQENRKIIEAQRKAIQELQFGNEKVSLKLEEGIQENKDLIKENNATRHLCNLLKETCARSAEKTKKYEYEREETRQVYMDLNNNIEKMITAFEELRVQAENSRLEMHFKLKEDYEKIQHLEQEYKKEINDKEKQVSLLLIQITEKENKMKDLTFLLEESRDKVNQLEEKTKLQSENLKQSIEKQHHLTKELEDIKVSLQRSVSTQKALEEDLQIATKTICQLTEEKETQMEESNKARAAHSFVVTEFETTVCSLEELLRTEQQRLEKNEDQLKILTMELQKKSSELEEMTKLTNNKEVELEELKKVLGEKETLLYENKQFEKIAEELKGTEQELIGLLQAREKEVHDLEIQLTAITTSEQYYSKEVKDLKTELENEKLKNTELTSHCNKLSLENKELTQETSDMTLELKNQQEDINNNKKQEERMLKQIENLQETETQLRNELEYVREELKQKRDEVKCKLDKSEENCNNLRKQVENKNKYIEELQQENKALKKKGTAESKQLNVYEIKVNKLELELESAKQKFGEITDTYQKEIEDKKISEENLLEEVEKAKVIADEAVKLQKEIDKRCQHKIAEMVALMEKHKHQYDKIIEERDSELGLYKSKEQEQSSLRASLEIELSNLKAELLSVKKQLEIEREEKEKLKREAKE
notes: SYCP1 α-helical core without the αNtip, amino-acids 112-783; tetramer alone by SEC-MALS; also called SYCP1's full α-helical core, in which αNtips were deleted (amino-acids 112-783); source: E. coli BL21(DE3), purified; alone or in complex with SYCE3

Assays:
[1] = target: the molecule itself; assay: SEC-MALS; purified proteins or co-expressed, purified complexes at 5-20 mg/ml; Superdex 200 Increase 10/300 GL, 20 mM Tris pH 8.0, 150 mM KCl, 2 mM DTT
[2] = target: T1, SYCP1αN ΔNtip; assay: as above; conditions: both partners purified
[3] = target: B6; assay: as above; conditions: both partners purified
[4] = target: B1; assay: as above; conditions: both partners purified
[5] = target: T2, SYCP1αN V105E L109E; assay: as above; conditions: both partners purified
[6] = target: B5; assay: as above; conditions: both partners purified
[7] = target: T3, SYCE2-TEX12core, labelled; assay: MST; SYCE3 titrated (1:1 dilutions) into 150 nM labelled SYCE2-TEX12core; Monolith NT.115, premium treated capillaries, excitation and MST power 40 %; apparent; conditions: both partners purified
[8] = target: B5; assay: ITC; SYCE3 (400 µM) injected into SYCP1αNcore (70 µM); 30°C; 25 mM Tris pH 8.0, 250 mM KCl, 2 mM DTT; apparent; conditions: both partners purified
[9] = target: T4, MBP-SYCP1αNcore; assay: SEC-MALS; purified proteins or co-expressed, purified complexes at 5-20 mg/ml; Superdex 200 Increase 10/300 GL, 20 mM Tris pH 8.0, 150 mM KCl, 2 mM DTT; conditions: both partners purified
[10] = target: T5, MBP-SYCP1αN; assay: SEC-MALS; MBP-SYCP1αN-His-SYCE3 complex on a Superose 6 increase 10/300 GL column; conditions: both partners purified

Binder: B1
binding result [1]: binds

Binder: B2
stoichiometry N [2]: 2 SYCP1 chains per SYCE3 chain
stoichiometry N [3]: 2 SYCP1 chains per SYCE3 chain
stoichiometry N [1]: 2
stoichiometry N [4]: 2 SYCP1 chains per SYCE3 chain (2:1 species) and 2 SYCP1 chains per SYCE3 chain (4:2 species: 4 SYCP1, 2 SYCE3)
stoichiometry N [5]: 2 SYCP1 chains per SYCE3 chain
stoichiometry N [6]: 2 SYCP1 chains per SYCE3 chain
Kd [7]: 21.8 µM
Kd [8]: 0.17 µM

Binder: B3
stoichiometry N [9]: 2 SYCP1 chains per SYCE3 chain
stoichiometry N [10]: 2 SYCP1 chains per SYCE3 chain (2:1 species) and 2 SYCP1 chains per SYCE3 chain (4:2 species: 4 SYCP1, 2 SYCE3)

Binder: B4
stoichiometry N [6]: 2 SYCP1 chains per SYCE3 chain

Binder: B5
stoichiometry N [1]: 4

Binder: B6
stoichiometry N [1]: 4
